Experimental data taken from patent US20050256058A1 (GEORGIA TECH RESEARCH, published 2005).
Numbered stars: 1 amine (or outer) side, 2 acyl side, 3 side chain; on linkers, the order of the positions; unused ones are H or OH. Square brackets hold non-standard residues; d marks the D form. * marks the point of attachment. CH═CH‑CON(CH3)CH2CH2Ph = CN(CCc1ccccc1)C(=O)/C=C/*; AAsp = aza-Asp, O=C(N(CC(=O)[*:3])N[*:1])[*:2]; CH═CH‑CON(CH3)CH2Ph = CN(Cc1ccccc1)C(=O)/C=C/*; CH═CH‑COOCH2Ph = O=C(/C=C/*)OCc1ccccc1; CH═CH‑COOEt = CCOC(=O)/C=C/*; Cbz = O=C(OCc1ccccc1)*

T1: Caspase-2 (UniProt P42575 170-452, limits assumed)
T1 sequence (looked up): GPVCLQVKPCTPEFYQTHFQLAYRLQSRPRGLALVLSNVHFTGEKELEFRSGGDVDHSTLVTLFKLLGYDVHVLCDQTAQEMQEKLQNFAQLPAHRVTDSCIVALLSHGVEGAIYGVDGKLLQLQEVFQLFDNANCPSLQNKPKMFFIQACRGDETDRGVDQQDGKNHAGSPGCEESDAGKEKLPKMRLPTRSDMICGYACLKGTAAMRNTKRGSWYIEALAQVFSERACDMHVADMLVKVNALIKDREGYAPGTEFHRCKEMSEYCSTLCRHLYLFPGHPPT

T2: Caspase-3 (UniProt P42574 29-277)
T2 sequence (looked up): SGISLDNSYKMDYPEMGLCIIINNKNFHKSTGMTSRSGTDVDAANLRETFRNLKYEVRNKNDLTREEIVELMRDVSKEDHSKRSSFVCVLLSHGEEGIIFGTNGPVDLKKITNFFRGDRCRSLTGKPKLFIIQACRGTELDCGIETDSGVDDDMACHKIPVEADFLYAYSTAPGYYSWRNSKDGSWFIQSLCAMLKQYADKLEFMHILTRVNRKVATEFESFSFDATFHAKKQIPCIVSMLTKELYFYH

T3: Caspase-6 (UniProt P55212 24-293, limits assumed)
T3 sequence (looked up): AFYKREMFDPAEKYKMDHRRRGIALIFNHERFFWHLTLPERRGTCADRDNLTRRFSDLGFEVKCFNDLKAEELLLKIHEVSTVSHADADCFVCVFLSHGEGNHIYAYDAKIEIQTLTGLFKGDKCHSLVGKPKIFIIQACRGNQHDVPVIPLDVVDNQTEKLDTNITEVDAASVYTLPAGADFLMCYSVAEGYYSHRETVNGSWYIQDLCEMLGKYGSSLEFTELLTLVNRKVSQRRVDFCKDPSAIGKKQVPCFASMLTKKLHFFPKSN

T4: Caspase-7 (UniProt P55210 24-303)
T4 sequence (looked up): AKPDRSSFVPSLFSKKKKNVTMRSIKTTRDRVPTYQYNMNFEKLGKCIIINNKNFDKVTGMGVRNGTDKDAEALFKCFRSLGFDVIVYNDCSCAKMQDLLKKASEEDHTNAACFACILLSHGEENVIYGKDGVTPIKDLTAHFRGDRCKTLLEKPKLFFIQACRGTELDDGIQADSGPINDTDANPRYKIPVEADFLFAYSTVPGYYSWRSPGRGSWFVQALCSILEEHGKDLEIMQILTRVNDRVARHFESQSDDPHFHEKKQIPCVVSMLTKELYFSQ

T5: Caspase-9 (UniProt P55211 1-416, limits assumed)
T5 sequence (looked up): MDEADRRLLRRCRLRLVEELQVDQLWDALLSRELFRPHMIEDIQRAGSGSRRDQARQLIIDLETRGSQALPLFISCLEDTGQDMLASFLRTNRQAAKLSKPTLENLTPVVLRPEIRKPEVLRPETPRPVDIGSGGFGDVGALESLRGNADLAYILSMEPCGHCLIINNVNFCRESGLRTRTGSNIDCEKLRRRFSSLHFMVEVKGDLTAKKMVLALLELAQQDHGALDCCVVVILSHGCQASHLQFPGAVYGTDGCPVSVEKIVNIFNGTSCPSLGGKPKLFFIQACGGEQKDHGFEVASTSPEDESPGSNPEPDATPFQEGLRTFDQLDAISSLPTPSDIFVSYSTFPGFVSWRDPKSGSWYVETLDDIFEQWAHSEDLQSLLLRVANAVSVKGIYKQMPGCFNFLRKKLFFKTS

T6: Caspase-10 (UniProt Q92851 220-521, limits assumed)
T6 sequence (looked up): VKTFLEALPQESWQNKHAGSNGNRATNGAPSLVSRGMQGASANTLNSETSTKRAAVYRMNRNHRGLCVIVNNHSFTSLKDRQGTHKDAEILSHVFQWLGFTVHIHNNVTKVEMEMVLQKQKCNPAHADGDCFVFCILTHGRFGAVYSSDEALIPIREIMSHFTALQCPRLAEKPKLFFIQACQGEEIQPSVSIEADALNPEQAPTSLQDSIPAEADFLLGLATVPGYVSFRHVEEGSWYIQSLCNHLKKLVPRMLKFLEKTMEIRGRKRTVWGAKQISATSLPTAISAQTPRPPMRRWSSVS


Tests used:
Assay in all cases: cell-based or functional assay
[1] = biological target: T1, Caspase-2
[2] = biological target: T2, Caspase-3
[3] = biological target: T3, Caspase-6
[4] = biological target: T4, Caspase-7
[5] = biological target: Caspase-8 (UniProt Q14790 217-479)
[6] = biological target: T5, Caspase-9
[7] = biological target: T6, Caspase-10

Chain of Caspase-8 (Q14790 217-479 limits assumed): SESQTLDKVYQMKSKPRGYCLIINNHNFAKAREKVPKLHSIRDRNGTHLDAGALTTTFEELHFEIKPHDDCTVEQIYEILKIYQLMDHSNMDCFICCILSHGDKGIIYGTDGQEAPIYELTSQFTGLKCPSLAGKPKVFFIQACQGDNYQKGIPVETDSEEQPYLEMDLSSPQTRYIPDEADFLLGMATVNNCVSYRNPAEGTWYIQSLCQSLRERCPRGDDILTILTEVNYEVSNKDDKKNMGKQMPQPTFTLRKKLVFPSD

| Binder | k2 [1] [M⁻¹ s⁻¹] | k2 [2] [M⁻¹ s⁻¹] | k2 [3] [M⁻¹ s⁻¹] | k2 [4] [M⁻¹ s⁻¹] | k2 [5] [M⁻¹ s⁻¹] | k2 [6] [M⁻¹ s⁻¹] | k2 [7] [M⁻¹ s⁻¹] |
| --- | --- | --- | --- | --- | --- | --- | --- |
| Cbz-LET[AAsp]-{CH═CH‑COOCH2Ph} (SMILES CC(C)C[C@H](NC(=O)OCc1ccccc1)C(=O)N[C@@H](CCC(=O)O)C(=O)N[C@H](C(=O)NN(CC(=O)O)C(=O)/C=C/C(=O)OCc1ccccc1)[C@@H](C)O) [Cbz-Leu-Glu-Thr-AAsp-CH═CH-COOCH2Ph] | 480 | 4600 | 47600 | 1570 | 98400 | – | 18900 |
| Cbz-DEV[AAsp]-{CH═CH‑CO‑tetrahydroquinoline} [Cbz-Asp-Glu-Val-AAsp-CH═CH-CON-tetrahydroquinoline] | 390 | 2.3e+06 | 5700 | 137000 | 118000 | 340 | 8330 |
| Cbz-Val-[AAsp]-{CH═CH‑CH═CH‑CH3} [Cbz-Val-AAsp-CH═CH-CH═CH-CH3] | – | – | – | 56 | – | – | – |
| Cbz-LET[AAsp]-{CH═CH‑CONHCH2‑4‑F‑Ph} [Cbz-Leu-Glu-Thr-AAsp-CH═CH-CONHCH2-4-F-Ph] | 70 | 4490 | 3100 | 410 | 171000 | 1700 | 9380 |
| Cbz-LET[AAsp]-{CH═CH‑CONHCH2Ph} [Cbz-Leu-Glu-Thr-AAsp-CH═CH-CONHCH2Ph] | 66 | 1120 | 1550 | 340 | 70200 | 1400 | 14400 |
| Cbz-LET[AAsp]-{CH═CH‑CON(CH3)CH2CH2Ph} (SMILES CC(C)C[C@H](NC(=O)OCc1ccccc1)C(=O)N[C@@H](CCC(=O)O)C(=O)N[C@H](C(=O)NN(CC(=O)O)C(=O)/C=C/C(=O)N(C)CCc1ccccc1)[C@@H](C)O) [Cbz-Leu-Glu-Thr-AAsp-CH═CH-CON(CH3)CH2CH2Ph] | 50 | 2620 | 2550 | 290 | 65300 | 960 | 6190 |
| Cbz-Val-[AAsp]-{CH═CH‑COOEt} [Cbz-Val-AAsp-CH═CH-COOEt] | – | 8000 | – | 2680 | – | 5240 | 389 |
| Cbz-Val-[AAsp]-{CH═CH‑CONH‑nBu} [Cbz-Val-AAsp-CH═CH-CONH-nBu] | – | 184 | – | 55 | – | 32 | – |
| Cbz-LET[AAsp]-{CH═CH‑CON(CH3)CH2Ph} (SMILES CC(C)C[C@H](NC(=O)OCc1ccccc1)C(=O)N[C@@H](CCC(=O)O)C(=O)N[C@H](C(=O)NN(CC(=O)O)C(=O)/C=C/C(=O)N(C)Cc1ccccc1)[C@@H](C)O) [Cbz-Leu-Glu-Thr-AAsp-CH═CH-CON(CH3)CH2Ph] | 140 | 6000 | 10800 | 520 | 169000 | 4320 | 8430 |
| Cbz-DEV[AAsp]-{CH═CH‑COPh} [Cbz-Asp-Glu-Val-AAsp-CH═CH-COPh] | 165 | 122000 | 1800 | 10800 | 9720 | – | 930 |

Now from value to binder:

| k2 [1] [M⁻¹ s⁻¹] | k2 [2] [M⁻¹ s⁻¹] | k2 [3] [M⁻¹ s⁻¹] | k2 [4] [M⁻¹ s⁻¹] | k2 [5] [M⁻¹ s⁻¹] | k2 [6] [M⁻¹ s⁻¹] | k2 [7] [M⁻¹ s⁻¹] | Binder |
| --- | --- | --- | --- | --- | --- | --- | --- |
| 660 | 2.64e+06 | 9500 | 275000 | 90300 | 820 | 29400 | Cbz-DEV[AAsp]-{CH═CH‑CON(CH3)CH2Ph} (SMILES CC(C)[C@H](NC(=O)[C@H](CCC(=O)O)NC(=O)[C@H](CC(=O)O)NC(=O)OCc1ccccc1)C(=O)NN(CC(=O)O)C(=O)/C=C/C(=O)N(C)Cc1ccccc1) [Cbz-Asp-Glu-Val-AAsp-CH═CH-CON(CH3)CH2Ph] |
| 410 | 5.62e+06 | 29700 | 875000 | 9460 | 150 | 32500 | Cbz-DEV[AAsp]-{CH═CH‑CON(CH2-1-Napth)2} [Cbz-Asp-Glu-Val-AAsp-CH═CH-CON(CH2-1-Napth)2] |
| 320 | 1.18e+06 | 4000 | 172000 | 31900 | 425 | 9570 | Cbz-DEV[AAsp]-{CH═CH‑CON(CH3)CH2CH2Ph} (SMILES CC(C)[C@H](NC(=O)[C@H](CCC(=O)O)NC(=O)[C@H](CC(=O)O)NC(=O)OCc1ccccc1)C(=O)NN(CC(=O)O)C(=O)/C=C/C(=O)N(C)CCc1ccccc1) [Cbz-Asp-Glu-Val-AAsp-CH═CH-CON(CH3)CH2CH2Ph] |
| – | – | – | – | – | 19 | – | Cbz-Val-[AAsp]-{CH═CH‑4‑Cl‑Ph} [Cbz-Val-AAsp-CH═CH-4-Cl-Ph] |
| – | – | – | – | – | 15 | – | Cbz-Val-[AAsp]-{CH═CH‑Cl} (also: cis isomer) [Cbz-Val-AAsp-CH═CH-Cl] |
| – | 185 | – | 60 | – | 20 | – | Cbz-Val-[AAsp]-{CH═CH‑CONHCH2Ph} [Cbz-Val-AAsp-CH═CH-CONHCH2Ph] |
| 26200 | 1.06e+06 | 11000 | 139000 | 181000 | – | 13500 | Cbz-DEV[AAsp]-{cis‑CH═CH‑COOEt} [Cbz-Asp-Glu-Val-AAsp-CH═CH-COOEt (cis)] |
| – | 2.1e+06 | 4400 | 329000 | 85100 | 900 | 37700 | Cbz-DEV[AAsp]-{CH═CH‑CONHCH2‑4‑F‑Ph} [Cbz-Asp-Glu-Val-AAsp-CH═CH-CONHCH2-4-F-Ph] |
| 90 | 38600 | 3540 | 52400 | – | – | 8940 | Cbz-Glu-Val-[AAsp]-{CH═CH‑COOEt} (SMILES CCOC(=O)/C=C/C(=O)N(CC(=O)O)NC(=O)[C@@H](NC(=O)[C@H](CCC(=O)O)NC(=O)OCc1ccccc1)C(C)C) [Cbz-Glu-Val-AAsp-CH═CH-COOEt] |
| 290 | 4700 | 11400 | 730 | 176000 | 1190 | 6050 | Cbz-LET[AAsp]-{CH═CH‑CONHPh} [Cbz-Leu-Glu-Thr-AAsp-CH═CH-CONHPh] |
| 110 | 5400 | 2150 | 440 | 121000 | 1760 | 17900 | Cbz-LET[AAsp]-{CH═CH‑CONHCH2CH2Ph} [Cbz-Leu-Glu-Thr-AAsp-CH═CH-CONHCH2CH2Ph] |
